Experimental data: patent US6344321
pKd: −log10 of the molar value.

Biological target: HGF (hepatocyte growth factor/scatter factor) (UniProt P14210+P14210)
Test: filter
Conditions: 2'-F pyrimidines

HGF (hepatocyte growth factor/scatter factor), sequence (P14210 32-494, chain 1 of 2): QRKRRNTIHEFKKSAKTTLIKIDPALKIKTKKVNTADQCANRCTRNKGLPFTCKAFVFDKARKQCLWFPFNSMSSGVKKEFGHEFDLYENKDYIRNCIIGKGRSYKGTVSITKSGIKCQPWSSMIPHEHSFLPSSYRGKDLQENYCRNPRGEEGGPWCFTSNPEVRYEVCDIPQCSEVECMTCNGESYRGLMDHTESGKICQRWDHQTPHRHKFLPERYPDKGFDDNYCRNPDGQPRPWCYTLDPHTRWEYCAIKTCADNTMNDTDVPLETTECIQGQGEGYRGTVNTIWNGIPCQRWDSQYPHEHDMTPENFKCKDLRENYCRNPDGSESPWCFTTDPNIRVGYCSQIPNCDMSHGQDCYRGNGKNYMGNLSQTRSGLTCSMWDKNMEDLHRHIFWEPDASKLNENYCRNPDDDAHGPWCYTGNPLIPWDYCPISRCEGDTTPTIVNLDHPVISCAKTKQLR
HGF (hepatocyte growth factor/scatter factor), sequence (P14210 495-728, chain 2 of 2): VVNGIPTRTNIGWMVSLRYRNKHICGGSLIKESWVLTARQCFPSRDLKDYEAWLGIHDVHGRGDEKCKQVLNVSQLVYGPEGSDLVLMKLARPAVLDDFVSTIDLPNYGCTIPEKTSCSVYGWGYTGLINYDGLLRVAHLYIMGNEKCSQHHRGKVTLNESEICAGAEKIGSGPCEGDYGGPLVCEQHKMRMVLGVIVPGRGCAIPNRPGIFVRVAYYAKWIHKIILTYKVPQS

Row | Sequence | pKd (one or two 5' G, one N in printed sequence) | pKd (random pool, 550 nM with competitor tRNA)
1 | GGAGAGNUCCUAUUUAUGACAUCCCAUGCCCCCA [Tr65] | 8.85 | –
2 | GGGAGGACGAUGCGGNNNNNNNNNNNNNNNNNNNNNNNNNNNNNNCAGACGACUCGCCCGA [random 30N7 pool] | – | 8.80
